Results from article PMC7343985.

Legend:
[1] = biological target: SpsD_(520-846) (C domain, connecting region of SpsD) (Staphylococcus pseudintermedius ED99); assay: SPR; Biacore X100; SpsD520-846 or SpsL538-823 covalently immobilised on CM5 chips; 2-fold dilution series of Fn in PBS with 0.005% Tween 20, 30 ul/min, 22°C; steady-state response fitted to the Langmuir equation (one-site model)
[2] = biological target: SpsL_(538-823) (R domain, repetitive region of SpsL) (Staphylococcus pseudintermedius ED99); assay: as above
[3] = biological target: Human fibronectin purified from plasma (human); assay: single-molecule force spectroscopy (AFM), dynamic force spectroscopy; Fn tips against immobilised bacteria, PBS, room temperature; retraction speeds 0.5, 1, 3, 5 and 10 um/s to vary the loading rate
[4] = biological target: Human fibronectin purified from plasma (human); assay: single-cell force spectroscopy (AFM); single bacterium on a polydopamine colloidal probe against Fn-coated gold substrates in PBS, room temperature, applied force 250 pN, approach and retraction 1,000 nm/s, contact time 100 ms
[5] = biological target: Human fibronectin purified from plasma (human); assay: single-molecule force spectroscopy (AFM); AFM tips functionalized with Fn (EDC/NHS) against bacteria immobilised on polystyrene, PBS, room temperature, applied force 250 pN, approach and retraction 1,000 nm/s, contact time 100 ms

Human fibronectin purified from plasma (natural protein)
Kd [1]: 1.2 nM
Kd [2]: 50 nM

SpsD on the surface of S. pseudintermedius ED99 spsL mutant cells (natural protein)
bond strength at low tensile force [3]: 0.25 nN
bond strength under mechanical tension [3]: 2 nN
adhesion force (cell 1) [4]: 1440 pN
adhesion force (cell 2) [4]: 1750 pN
adhesion force (cell 3) [4]: 1540 pN
unbinding force (cell 1) [5]: 1500 pN
unbinding force (cell 2) [5]: 1700 pN
unbinding force (cell 3) [5]: 1820 pN

SpsL on the surface of S. pseudintermedius ED99 spsD mutant cells (natural protein)
adhesion force (3 cells) [4]: 168 pN
frequency of adhesive force curves [4]: 66%
adhesion force (3 cells) [5]: 158 pN
